Results on three molecules are retold here after patent publication US20130183688A1 (BRIGHAM AND WOMEN S HOSPITAL, published 2013).

Assay [1] concerns the target T1, murine galectin-9 long isoform (galectin-9-L), expressed in transiently transfected CHO cells (mouse, UniProt O08573 1-353).
T1 construct: Expressed from pIRES2-EGFP in CHO cells; intracellular staining of fixed cells
The experiment in a line: intracellular staining of transfected CHO cells, anti-human IgG-Fc-PE, flow cytometry. An excerpt:
FIG. 11A Both regular and long isoforms for galectin-9 (galectin-9 and galectin-9-L respectively) are able to bind to TIM-3. Protein sequences between two galectin-9 isoforms are identical except a 31 amino acid peptide insert in the hinge region of galectin-9-L. Murine cDNAs for isoforms of galectin-9 from TK-1 cells were subcloned into a eukaryotic bicistronic expression vector pIRES2-EGFP. The plasmids were transiently transfected into CHO cells respectively. Cells were fixed for intracellular staining with flTIM-3-Ig (top row graphs), sTIM-3-Ig (center row graphs), and hIgG (bottom row graphs) and detected by anti-human IgG-Fc-PE 48 hours after transfection. EGFP positive signals in FACS analyses indicated transfected cells. The anti-human IgG-Fc-PE was used to detect the binding from Ig fusions or hIgG. FIG. 11B Murine cDNAs for galectin-9 (first column graphs), -4 (second column graphs), -3 (third column graphs), and -1 (fourth column graphs) were subcloned into pIRES2-EGFP. […]
To confirm the interaction between galectin-9 and TIM-3, both galectin-9 isoform cDNAs were subcloned into an expression vector that bicistronically expresses EGFP protein. […] In transient transfection, expression of galectin-9 was not detected on the cell surface. […]
For orientation: Flow cytometry measures light scatter and fluorescence of single cells or particles in a stream.

Assay [2] addresses T2, recombinant galectin-9 (r-galectin-9) (mouse, UniProt O08573 1-353).
T2 construct: Any vector-derived tag is not described; also called purified recombinant galectin-9
The experiment in a line: pull-down with protein G beads, SDS-PAGE, Coomassie blue. An excerpt: FIG. 11A Both regular and long isoforms for galectin-9 (galectin-9 and galectin-9-L respectively) are able to bind to TIM-3. Protein sequences between two galectin-9 isoforms are identical except a 31 amino acid peptide insert in the hinge region of galectin-9-L. Murine cDNAs for isoforms of galectin-9 from TK-1 cells were subcloned into a eukaryotic bicistronic expression vector pIRES2-EGFP. The plasmids were transiently transfected into CHO cells respectively. Cells were fixed for intracellular staining with flTIM-3-Ig (top row graphs), sTIM-3-Ig (center row graphs), and hIgG (bottom row graphs) and detected by anti-human IgG-Fc-PE 48 hours after transfection. EGFP positive signals in FACS analyses indicated transfected cells. The anti-human IgG-Fc-PE was used to detect the binding from Ig fusions or hIgG. FIG. 11B Murine cDNAs for galectin-9 (first column graphs), -4 (second column graphs), -3 (third column graphs), and -1 (fourth column graphs) were subcloned into pIRES2-EGFP. The plasmids and the empty vector (fifth column graphs) that only produces EGFP were transiently transfected into CHO for intracellular staining by s-TIM-3-Ig respectively. The anti-human IgG-Fc-PE was used to detect sTIM-3-Ig binding. FIG. 11C Galectin-9 cDNA was subcloned into prokaryotic expression vector pTrcHis 2B. […]

Assay [3] deals with T3, murine galectin-9 (regular isoform), expressed in transiently transfected CHO cells (mouse, UniProt O08573 1-353).
T3 construct: Expressed from pIRES2-EGFP in CHO cells; not found on the cell surface, detected by intracellular staining of fixed cells; also called regular galectin-9; wt galectin-9
T3 sequence (O08573 other isoform, or with tags, fused parts or gaps): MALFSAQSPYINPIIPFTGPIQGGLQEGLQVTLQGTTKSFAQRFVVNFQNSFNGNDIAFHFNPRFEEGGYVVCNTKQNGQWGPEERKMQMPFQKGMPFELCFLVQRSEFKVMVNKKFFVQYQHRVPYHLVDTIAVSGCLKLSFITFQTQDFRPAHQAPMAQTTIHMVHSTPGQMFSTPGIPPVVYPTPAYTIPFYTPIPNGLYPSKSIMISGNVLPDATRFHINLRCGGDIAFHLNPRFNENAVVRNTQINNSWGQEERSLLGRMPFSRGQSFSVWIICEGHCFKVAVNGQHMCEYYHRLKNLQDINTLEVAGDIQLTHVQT
Nature of the assay: intracellular staining of galectin-9 transfected CHO cells, flow cytometry.

Assay [4] concerns the target T4, galectin-9 of TK-1 cells (biotinylated membrane associated 40 to 60 kD band, 35 kD after PNGase F) (UniProt O08573-2 1-322, limits assumed, surface biotinylated with NHS-LC-Biotin).
T4 construct: Endogenous protein pulled down from cell lysate; also called 35 kD protein
Nature of the assay: pull-down from lysate of surface biotinylated TK-1 cells, Protein G-agarose, Western blot. On the procedure: FIG. 10A TK-1 cells express the highest level of TIM-3 ligand(s). Three T cell lines, TK-1, S49.1G.3PHA 100/0, and BW1547.G.1.4, were stained by biotinylated sTIM-3-Ig (0.4 mg/ml) at 1:20 (top row graphs) and 1:50 dilutions (center row graphs), and detected by anti-human IgG-Fc-PE for the TIM-3 ligand expression. All T cell lines are stained positively by TIM-3 fusions FACS analysis, among which up to 90% of TK-1 were positively stained by both flTIM-3-Ig and sTIM-3-Ig (bottom row graphs). […] Extracellular membrane associated proteins on live TK-1 cells were biotinylated by NHS-LC-Biotin in PBS pH7.9 buffer at room temperature. Reaction was stopped by DMEM medium after 1 hour incubation. Cell lysate from the biotinylated TK-1 cells was used in pull-down experiment by incubating with 5 μg flTIM-3-Ig, sTIM-3-Ig, TIM-2-Ig, and hIgG respectively plus Protein G-agarose beads at 4° C. Protein samples eluted from beads were treated with or without PNGase F to remove N-linked sugar chains, and applied to SDS-PAGE and Western blot. Only signals from biotinylated membrane associated proteins bound to avidin conjugated peroxidase and were detected by chemiluminescent signal. […]
(In general: Immunoblotting shows a protein as a band on a membrane.)

The target of assay [5] is T5, galectin-9 R64A (mutation in N-terminal CRD domain), expressed in CHO cells (mouse, UniProt O08573 1-353).
T5 construct: Intracellular staining; also called mutant galectin-9 N-terminal CRD
T5 sequence (O08573 other isoform, or with tags, fused parts or gaps R64A R64A): as the sequence (O08573 other isoform, or with tags, fused parts or gaps) above, with R64A counted along it
The experiment in a line: intracellular staining of transfected CHO cells by sTIM-3-Ig, flow cytometry. On the procedure:
(§1) FIGS. 12A-12C show galectin-9 recognizes the β-galactoside bond in oligosaccharide chains of TIM-3. FIG. 12A Galectin-9 expression plasmid was transiently transfected into CHO cells and fixed for intracellular staining by sTIM-3-Ig. Incubation buffers with different concentrations from 0 to 100 mM of α-lactose were used in the experiments. Bars in the histograph represent percentage of double positive cell population for EGFP and sTIM-3-Ig staining in presence of different concentration of a-lactose. FIG. 12B Two μg of r-galectin-9 was mixed with 4 μg sTIM-3-Ig in presence of different concentration of a-lactose from 0 to 100 mM in a pull-down experiment. Elutes from protein G beads were applied to SDS-PAGE and stained by Coomassie blue. A band at 50 kD represents sTIM-3-Ig, and the one at 38 kD stands for r-galectin-9. FIG. 12C CRD domains in galectin-9 are required for interaction with TIM-3. Constructs with mutation of R64A in N-terminal CRD domain (second column graphs), R238A in C-terminal CRD domain (third column graphs), or both (fourth column graphs) were generated and subcloned into expression vector pIRES2-EGFP. CHO cells were transiently transfected by wt (first column graphs) and mutant galection-9 expression plasmids (second through fourth column graphs) for intracellular staining by sTIM-3-Ig. EGFP and anti-human IgG-Fc-PE double positive standard for interaction between galectin-9 and sTIM-3-Ig.

The target in assay [6] is T6, galectin-9 R238A (mutation in C-terminal CRD domain), expressed in CHO cells (mouse, UniProt O08573 1-353).
T6 construct: Intracellular staining; also called mutant galectin-9 C-terminal CRD
T6 sequence (O08573 other isoform, or with tags, fused parts or gaps R238A R238A): as the sequence (O08573 other isoform, or with tags, fused parts or gaps) above, with R238A counted along it
The assay is described as above. On the procedure: as §1

In assay [7] the target is T7, galectin-9 R64A and R238A (double mutation in both CRD domains), expressed in CHO cells (mouse, UniProt O08573 1-353).
T7 construct: Intracellular staining; also called double mutant galectin-9
T7 sequence (O08573 other isoform, or with tags, fused parts or gaps R64A R238A R64A R238A): as the sequence (O08573 other isoform, or with tags, fused parts or gaps) above, with R64A, R238A counted along it
The description is as above. The method, then:
as §1

T1 sequence (O08573 whole entry, canonical isoform): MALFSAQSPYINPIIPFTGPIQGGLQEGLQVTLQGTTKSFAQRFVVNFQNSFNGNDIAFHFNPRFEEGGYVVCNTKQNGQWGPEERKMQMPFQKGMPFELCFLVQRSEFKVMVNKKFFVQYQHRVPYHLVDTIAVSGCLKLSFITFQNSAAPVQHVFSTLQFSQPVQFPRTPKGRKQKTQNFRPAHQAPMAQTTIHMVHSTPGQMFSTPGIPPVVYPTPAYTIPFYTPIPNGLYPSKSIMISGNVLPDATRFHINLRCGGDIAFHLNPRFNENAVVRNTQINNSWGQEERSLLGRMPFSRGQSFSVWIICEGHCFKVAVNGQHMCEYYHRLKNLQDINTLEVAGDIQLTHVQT
T2 sequence (O08573 other isoform, or with tags, fused parts or gaps limits assumed): as the sequence (O08573 other isoform, or with tags, fused parts or gaps) above
T4 sequence (O08573 other isoform, or with tags, fused parts or gaps limits assumed): as the sequence (O08573 other isoform, or with tags, fused parts or gaps) above, with D150N counted along it

B1: full-length Tim-3-Ig fusion protein (ex-Tim-3-Ig) (Fc fusion)
chain: RSLEDGYKVEVGKNAYLPCSYTLPTSGTLVPMCWGKGFCPWSQCTNELLRTDERNVTYQKSSRYQLKGDLNKGDVSLIIKNVTLDDHGTYCCRIQFPGLMNDKKLELKLDIKAAKVTPAQTAHGDSTTASPRTLTTERNGSETQTLVTLHNNNGTKISTWADEIKDSGETIRTA
modifications: biotinylated in some cell staining experiments
notes: expressed in NS.1 cells; also called flTIM-3-Ig; flTim-3-Ig; not shown: human IgG1 Fc tail
For the molecule B1, the binding result in assay [1] is reported as “binds”.

B2: TIM-2-Ig (Fc fusion, UniProt Q8R183 22-231, looked up)
chain: HTAVQGLAGHPVTLPCIYSTHLGGIVPMCWGLGECRHSYCIRSLIWTNGYTVTHQRNSLYQLKGNISEGNVSLTIENTVVGDGGPYCCVVEIPGAFHFVDYMLEVKPEISTSPPTRPTATGRPTTISTRSTHVPTSTRVSTSTSPTPAHTETYKPEATTFYPDQTTAEVTETLPDTPADWHNTVTSSDDPWDDNTEVIPPQKPQKNLNKG
notes: Control Ig fusion; also called TIM-2 Ig fusion; not shown: Ig part of the fusion not described
In the case of B2, the results for the binding result in assay [2], in assay [3] and in assay [4] were “no binding”, “no binding” and “no binding (tested: 5 µg)”, respectively.

B3: soluble Tim-3-Ig fusion protein (s-Tim-3-Ig) (Fc fusion)
chain: LEDGYKVEVGKNAYLPCSYTLPTSGTLVPMCWGKGFCPWSQCTNELLRTDERNVTYQKSSRYQLKGDLNKGDVSLIIKNVTLDDHGTYCCRIQFPGLMNDKKLELKLDIKA
modifications: biotinylated in some cell staining experiments
notes: not shown: human IgG1 Fc tail
Regarding B3, the binding result in assay [5] is recorded as “binds”; in assay [6], “binds”; in assay [7], “no binding”; in assay [1], “binds”.
